Laboratory results taken from patent US20230312724A1 (KADMON, published 2023).

T1: mouse B7-H4-his (mouse, UniProt Q7TSP5 25-257)
T1 construct: also called mB7-H4-his; mB7-H4-His; not shown: his tag
T1 sequence: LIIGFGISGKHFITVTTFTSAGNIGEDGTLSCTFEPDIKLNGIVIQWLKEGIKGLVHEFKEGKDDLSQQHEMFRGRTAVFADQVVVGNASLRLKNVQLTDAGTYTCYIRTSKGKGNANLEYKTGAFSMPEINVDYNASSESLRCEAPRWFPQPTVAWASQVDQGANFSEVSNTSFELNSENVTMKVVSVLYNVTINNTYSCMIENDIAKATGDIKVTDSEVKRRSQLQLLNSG

T2: human B7-H4-his (human, UniProt Q7Z7D3 25-259)
T2 construct: also called hB7-H4-his; hB7-H4 his; not shown: his tag
T2 sequence: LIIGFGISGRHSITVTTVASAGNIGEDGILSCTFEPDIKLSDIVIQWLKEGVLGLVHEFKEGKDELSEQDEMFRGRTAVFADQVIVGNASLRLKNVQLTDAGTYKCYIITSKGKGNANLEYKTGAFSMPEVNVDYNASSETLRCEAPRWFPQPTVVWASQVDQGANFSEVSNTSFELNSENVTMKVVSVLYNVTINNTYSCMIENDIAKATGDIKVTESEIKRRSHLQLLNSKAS

T3: hB7-H4 (soluble human B7-H4, construct not named) (human, UniProt Q7Z7D3 25-259, limits assumed)
T3 construct: also called soluble hB7-H4
T3 sequence: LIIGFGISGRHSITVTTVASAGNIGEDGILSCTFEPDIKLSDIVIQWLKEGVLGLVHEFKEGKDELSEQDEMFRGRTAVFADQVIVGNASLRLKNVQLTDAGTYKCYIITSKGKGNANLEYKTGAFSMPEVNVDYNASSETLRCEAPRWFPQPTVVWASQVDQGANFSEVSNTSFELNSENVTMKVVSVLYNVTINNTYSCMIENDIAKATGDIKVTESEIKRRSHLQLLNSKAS

T4: human B7-H4 expressed on cells (human, UniProt Q7Z7D3 25-282)
T4 construct: Transfected CHO cells or tumor cell lines that carry hB7-H4; also called cellular hB7-H4
T4 sequence: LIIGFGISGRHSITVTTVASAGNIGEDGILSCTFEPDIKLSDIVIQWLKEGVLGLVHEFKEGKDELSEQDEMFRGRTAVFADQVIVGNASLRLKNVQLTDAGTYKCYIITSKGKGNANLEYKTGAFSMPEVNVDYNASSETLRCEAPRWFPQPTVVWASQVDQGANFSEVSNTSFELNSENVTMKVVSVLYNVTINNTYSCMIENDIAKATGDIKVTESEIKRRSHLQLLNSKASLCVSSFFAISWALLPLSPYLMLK

T5: mouse B7-H4 expressed on cells (mouse, UniProt Q7TSP5 25-257)
T5 construct: also called cellular mB7-H4; mB7-H4/CT26
T5 sequence: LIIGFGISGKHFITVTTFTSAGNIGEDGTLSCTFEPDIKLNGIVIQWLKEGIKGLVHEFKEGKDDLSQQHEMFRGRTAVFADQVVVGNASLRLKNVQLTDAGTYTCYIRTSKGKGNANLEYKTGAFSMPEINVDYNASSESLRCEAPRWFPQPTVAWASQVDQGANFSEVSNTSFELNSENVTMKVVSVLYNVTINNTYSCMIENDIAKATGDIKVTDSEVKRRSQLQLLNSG

T6: mB7-H4 (soluble mouse B7-H4, construct not named) (mouse, UniProt Q7TSP5 25-257, limits assumed)
T6 sequence: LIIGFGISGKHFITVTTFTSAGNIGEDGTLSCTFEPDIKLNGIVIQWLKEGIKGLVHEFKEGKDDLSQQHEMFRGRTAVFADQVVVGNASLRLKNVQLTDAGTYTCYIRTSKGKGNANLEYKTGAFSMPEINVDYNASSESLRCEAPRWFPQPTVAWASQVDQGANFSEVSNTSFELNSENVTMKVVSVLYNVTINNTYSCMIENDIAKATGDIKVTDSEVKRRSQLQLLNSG


Columns and labels:
[1] = target: T1, mouse B7-H4-his; experiment: SPR (Biacore)
[2] = target: T2, human B7-H4-his; experiment: SPR (Biacore)
Procedure: (§1) Surface plasmon resonance experiments were performed using a Biacore T200 instrument equipped with CM5 sensor chips. The system was equilibrated in running buffer HBS-EP pH 7.4. The ligands were immobilized using amine-coupling chemistry. The surfaces of flow cells one through four were activated for 5 min using an amine coupling kit at a flow rate of […]. The ligands (human B7-H4-Fc, human B7-H4-hism and mouse B7-H4-Fc; at a concentration of 5 μg/ml in 10 mM sodium acetate, pH 5.0) were immobilized at a density of 50-100 RU on flow cell 2, 3, 4 respectively. Flow cell 1 was left blank to serve as a reference surface. All flow cell surfaces were blocked with a 5 min injection of 1 M ethanolamine, pH 8.0. To collect kinetic binding data, the respective analyte (diluted in 1×HBS-EP buffer, pH 7.4) was injected over the four flow cells at concentrations of 100 nM to 0.1 nM at a flow rate of […] and at a temperature of 25° C. The protein complex was allowed to associate and dissociate for 180 seconds and 1000 or 1200 seconds, respectively. The surfaces were regenerated with a 30 second injection of 1.5 M NaCl/0.05 M NaOH. The data were fit to a simple 1:1 interaction model using the Langmuir fit option available within the Biaevaluaton software
(§2) The kinetics for binding of the different antibodies to their targets were examined using Biacore analysis.

[3] = target: T7, mouse B7-H4-Fc (mouse; human); experiment: ELISA, coated mB7-H4-Fc
T7 construct: also called mB7-H4-Fc; mB7-H4-hFc
T7 sequence (chain, as listed by the source): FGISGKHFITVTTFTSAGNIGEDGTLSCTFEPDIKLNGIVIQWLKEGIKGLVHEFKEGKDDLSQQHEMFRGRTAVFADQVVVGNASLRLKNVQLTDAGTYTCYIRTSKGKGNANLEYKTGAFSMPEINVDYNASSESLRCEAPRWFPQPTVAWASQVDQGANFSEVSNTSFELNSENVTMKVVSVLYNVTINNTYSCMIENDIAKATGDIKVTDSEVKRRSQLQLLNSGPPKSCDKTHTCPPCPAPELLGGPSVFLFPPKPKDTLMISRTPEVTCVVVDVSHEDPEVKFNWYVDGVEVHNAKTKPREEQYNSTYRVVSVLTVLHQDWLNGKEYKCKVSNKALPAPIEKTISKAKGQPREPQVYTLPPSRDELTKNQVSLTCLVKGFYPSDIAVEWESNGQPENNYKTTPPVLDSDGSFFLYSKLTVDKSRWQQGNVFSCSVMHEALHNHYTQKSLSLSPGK
Procedure: (§3) About 1-2 μg/ml of human or mouse B7-H4-Fc (or his-tagged) was immobilized on ELISA plates (Immuno 2HB, Thermo scientific, cat #3455) at 4° C. overnight. After blocking the plates with 3% PBS+milk, serial diluted antibodies were added to the blocked plates and incubated at RT for 1-1.5 h. After washing the plates with PBS-T (0.05%), horse radish peroxidase (HRP)-conjugated antibody targeting the hFab was added to the plate. Signals were developed by adding 3,3′,5,5′-Tetramethylbenzidine (TMB (followed 1N of H₂SO₄ to stop the reaction. The OD at 450 nm was read by ELISA plate reader (Infinite M1000 from TECAN). GraphPad from Prism was used to plot OD450 vs. antibody concentration curve and to calculate the EC50 values.

[4] = target: T8, IgV domain of mouse B7-H4-Fc (mouse; human); experiment: ELISA, coated mB7-H4 IgV domain
T8 construct: also called mB7-H4 IgV domain
T8 sequence (chain, as listed by the source): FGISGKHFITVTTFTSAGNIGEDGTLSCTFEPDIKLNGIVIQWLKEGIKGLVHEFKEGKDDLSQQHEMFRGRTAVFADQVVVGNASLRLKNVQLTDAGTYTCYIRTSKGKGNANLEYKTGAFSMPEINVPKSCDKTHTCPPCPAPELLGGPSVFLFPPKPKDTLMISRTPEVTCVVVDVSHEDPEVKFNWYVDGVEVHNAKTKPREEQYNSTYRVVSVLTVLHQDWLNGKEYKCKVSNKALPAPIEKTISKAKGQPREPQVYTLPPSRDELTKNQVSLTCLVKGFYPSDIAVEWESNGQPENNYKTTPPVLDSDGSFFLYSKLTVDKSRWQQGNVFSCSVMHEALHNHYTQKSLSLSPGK
Procedure: as §3

[5] = target: T9, IgV domain of human B7-H4-Fc (human); experiment: ELISA, coated hB7-H4 IgV domain
T9 construct: also called hB7-H4 IgV domain
T9 sequence (chain, as listed by the source): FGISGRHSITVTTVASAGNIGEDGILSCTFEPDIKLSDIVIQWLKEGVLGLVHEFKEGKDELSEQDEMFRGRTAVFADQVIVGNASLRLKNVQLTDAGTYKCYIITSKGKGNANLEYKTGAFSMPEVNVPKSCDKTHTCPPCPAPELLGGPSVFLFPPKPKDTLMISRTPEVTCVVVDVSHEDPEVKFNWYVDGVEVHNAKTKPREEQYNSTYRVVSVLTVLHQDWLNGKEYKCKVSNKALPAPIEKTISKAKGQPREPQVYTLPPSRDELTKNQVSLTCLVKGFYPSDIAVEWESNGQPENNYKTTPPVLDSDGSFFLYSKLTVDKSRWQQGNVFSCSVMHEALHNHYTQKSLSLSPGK
Procedure: as §3

[6] = target: T7, mouse B7-H4-Fc; experiment: SPR (Biacore)
[7] = target: T10, human B7-H4-Fc (human); experiment: SPR (Biacore)
T10 construct: also called hB7-H4-Fc; hB7-H4 Fc
T10 sequence (chain, as listed by the source): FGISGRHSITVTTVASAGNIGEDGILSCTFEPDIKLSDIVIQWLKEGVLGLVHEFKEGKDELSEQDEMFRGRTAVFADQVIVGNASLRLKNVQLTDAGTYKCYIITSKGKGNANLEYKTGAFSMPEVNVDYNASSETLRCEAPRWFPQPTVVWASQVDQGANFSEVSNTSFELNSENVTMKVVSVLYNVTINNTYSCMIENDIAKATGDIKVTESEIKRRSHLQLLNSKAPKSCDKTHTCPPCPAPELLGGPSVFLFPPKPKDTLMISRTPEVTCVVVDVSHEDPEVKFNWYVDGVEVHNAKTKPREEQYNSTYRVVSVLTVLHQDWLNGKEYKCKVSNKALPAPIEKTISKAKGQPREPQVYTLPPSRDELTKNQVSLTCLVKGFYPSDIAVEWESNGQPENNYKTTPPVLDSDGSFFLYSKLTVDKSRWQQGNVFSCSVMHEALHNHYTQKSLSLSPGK
Procedure: as §1, §2

[8] = target: T3, hB7-H4 (soluble human B7-H4, construct …); experiment: ELISA, hB7-H4
Procedure: as §3

[9] = target: T4, human B7-H4 expressed on cells; experiment: flow cytometry, SK-BR-3 cells
Procedure: (§4) Cells were harvested, washed once, and then re-suspended to the concentration of 1×10⁶ cells/ml in ice cold FACS Buffer. 25 μl of cell suspension was added to each well of a 96-well round-bottom microliter plate. Serially diluted antibodies or fusion proteins were added to each well and incubated for 1 hour at 4° C. Cells were washed three times by centrifugation at 1500 rpm for 5 minutes, and then stained with secondary antibody (1:200 dilution) for 30 min at 4° C. in the dark. Cells were washed once, re-suspended in 100 μl PBS buffer and then analyzed using Guava Flow Cytometry EasyCyte system.

[10] = target: T5, mouse B7-H4 expressed on cells; experiment: flow cytometry, mB7-H4/CT26 cells
Procedure: as §4

[11] = target: T6, mB7-H4 (soluble mouse B7-H4, construct …); experiment: ELISA, mB7-H4
Procedure: as §3

[12] = target: T6, mB7-H4 (soluble mouse B7-H4, construct …); experiment: SPR (Biacore)
Procedure: as §1

[13] = target: T3, hB7-H4 (soluble human B7-H4, construct …); experiment: SPR (Biacore)
Procedure: as §1

Binder	Kd [1]	Kd [2]	binding result [3]	binding result [4]	binding result [5]	Kd [6]	Kd [7]	EC50 [8]	EC50 [9]	EC50 [10]	EC50 [11]	Kd [12]	Kd [13]
24B6/24B6 (antibody, human IgG1, V domains shown) VH: QVQLVQSGAEVKKPGASVKVSCKASGYTFTGYYMHWVRQAPGQGLEWIGWMNPNSGDTGYAQKFQGRVTMTRDTSTSTVYMELSSLRSEDTAVYYCAKVGAYGGMDVWGQGTTVTVSS VL: not shown	3.4 nM	5.3 nM	binds										
30G4/30G4 (antibody, human IgG1, V domains shown) VH: QVQLVQSGAEVKKPGASVKVSCKASGYTFSSYYMHWVRQAPGQGLEWMGWMNPNSGDTGYAQKFQGRVTMTRDTSTSTVYMELSSLRSEDTAVYYCARVPETGGMDVWGQGTTVTVSS VL: DIVMTQSPLSLPVTPGEPASISCRSSQSLLHSNGYNYLDWYLQKPGQSPQLLIYGASSLHSGVPDRFSGSGSGTDFTLKISRVEAEDVGVYYCMQGTHWPPTFGQGTKVEIK	6.38 nM	6.05 nM	binds										
5G6/5G6 (antibody, human IgG1, V domains shown) VH: QVQLVQSGAEVKKPGASVKVSCKASGYTFTSYYMHWVRQAPGQGLEWLGWVNPNTGTTRFAQKFQGRVTMTRDTSTSTVYMELSSLRSEDTAVYYCARDANYYYGMDVWGQGTMVTVSS VL: DIVMTQSPDSLAVSLGERATINCKSSQSVLYSSNNKNYLAWYQQKPGQPPKLLIYWASTRESGVPDRFSGSGSGTDFTLTISSLQAEDVATYYCQKYNSALPITFGQGTRLEIK	7.83 nM	5.19 nM		no binding (tested: 20 nM)	no binding (tested: 20 nM)	13.1 nM	12.1 nM						
9D11/9D11 (antibody, human IgG1, V domains shown) VH: QVQLVQSGAEVKKPGASVKVSCKASGYTFTSYGISWVRQAPGQGLEWVGVINPNGGTTTYAQTFQGRVTMTRDTSTSTVYMELSSLRSEDTAVYYCARTGYSSGWAFDYWGRGTLVTVSS VL: not shown	1.52 nM	0.85 nM				0.642 nM	1.8 nM	0.18 nM	126 nM	122 nM	0.104 nM	4.78 nM	5.97 nM
9D11/67G3 (antibody, human IgG1, V domains shown, 9D11 VH with 67G3 VL) VH: QVQLVQSGAEVKKPGASVKVSCKASGYTFTSYGISWVRQAPGQGLEWVGVINPNGGTTTYAQTFQGRVTMTRDTSTSTVYMELSSLRSEDTAVYYCARTGYSSGWAFDYWGRGTLVTVSS VL: not shown			binds					0.261 nM	22.5 nM	45.3 nM	0.162 nM	8.46 nM	10.6 nM
9D11/67H9 (antibody, human IgG1, V domains shown, 9D11 VH with 67H9 VL) VH: QVQLVQSGAEVKKPGASVKVSCKASGYTFTSYGISWVRQAPGQGLEWVGVINPNGGTTTYAQTFQGRVTMTRDTSTSTVYMELSSLRSEDTAVYYCARTGYSSGWAFDYWGRGTLVTVSS VL: not shown								0.1 nM	24 nM	54.3 nM	0.105 nM	6.08 nM	7.09 nM
9D11/67C6 (antibody, human IgG1, V domains shown, 9D11 VH with 67C6 VL) VH: QVQLVQSGAEVKKPGASVKVSCKASGYTFTSYGISWVRQAPGQGLEWVGVINPNGGTTTYAQTFQGRVTMTRDTSTSTVYMELSSLRSEDTAVYYCARTGYSSGWAFDYWGRGTLVTVSS VL: not shown			binds					0.115 nM	9.2 nM	45.7 nM	0.082 nM	2.8 nM	15 nM
24F4/24F4 (antibody, human IgG1, V domains shown) VH: QVQLVQSGAEVKKPGSSVKVSCKASGYRFTGDYIHWVRQAPGQGLEWMGWMNPNSGNTGLAQKFQGRVTITADESTSTAYMELSSLRSEDTAVYYCARVLGFSGGMDVWGQGTTVTVSS VL: DIVMTQSPLSLPVTPGEPASISCRSSQSLLHSNGYNYLDWYLQKPGQSPQLLIYAASSLRSGVPDRFSGSGSGTDFTLKISRVEAEDVGVYYCMQGTHWPPTFGQGTKLEIK	29.2 nM	194 nM	binds										
9E1/9E1 (antibody, V domains shown) VH: QVQLVQSGAEVKKPGASVKVSCKASGYTFTGYYLHWVRQAPGQGLEWMGWINPNSGGTNSAQRFQGRVTMTRDTSTSTVYMELSSLRSEDTAVYYCARVRGYEGGMDVWGQGTTVTVSS VL: not shown	12.4 nM	7.91 nM		no binding (tested: 20 nM)	no binding (tested: 20 nM)	10.6 nM	13.7 nM						
15B11/15B11 (antibody, V domains shown) VH: QVQLVQSGAEVKKPGASVKVSCKASGYTFTGYYIHWVRQAPGQGLEWMGWMNPHSGHTGYAQNLQGRVTMTRDTSTSTVYMELSSLRSEDTAVYYCARVKVTTGFDYWGQGTLVTVSS VL: not shown	6.17 nM	5.17 nM				3.55 nM	4.26 nM						
